According to a protein production outcome set (Wang et al. 2014):

Experiment: label from the status in PepcDB records

Row | Sequence | protein production
1 | MTILVEHFVPDSRVDEKKVIEERDNELVLDGGFVVPKSKETDAFDAPDMNFLGHSFRDYENGESERQQGVEEFYRMQHIHQTYDFVKKMRKEYGKLNKMEMSIWECCELLNNVVDESDPDLDEPQIQHLLQTAEAIRRDYPDEDWLHLTALIHDLGKVLLLPEFGGLPQWAVVGDTFPVGCTFDSANIHHKYFKGNHDINNPKYNTKNGVYTEGCGLDNVLMSWGHDDYMYLVAKKNGTTLPHAGLFIIRYHSFYPLHKAGAYTHLMNDEDRDDLKWLHVFNKYDLYSKSKVLVDVEQVKPYYISLINKYFPAKLKW | failed
2 | MKQKQFYFIYVFLLSMTFLGACSKDSPNELIPNTIVKIEIDKLPGKRIYFIGEELDVSDMTLKVFYSNETSEIVPVKKDEVTGFNSTVPENDQILEVHKGSFTVTFKIQVLINDIQAISIKTLPSKTVYTLGEPLSLSNMVLEINYADGTIKENSAPSADWVQGFNSSVPAQLQIVTLELDGKQVSFDVQILPVKVDGDKVVSVIDSDFTSITFPDGIRTIGSKAFENKNIKASELLCPASLSTIEQAAFAYCRNLKIVDLSHTSIKELPEEAFLFSGIKKIALPASLEIVGKEAFYGCTDLNVIDISHTSVKELQNGAFGKSGISSISLPSTFKIVGASAFIETKNLKELTLPEGSEVIDLEAFSGSSIQKVTLPNTIYHIDRSFYSCPELTTIETYGTRTTPSPVDRTAAIVSECFNHSPKLTVLKIPASIVKIGISALNKCQVKTLILPASVKALDFNAFGNAVSLDEISLMSPTMVTADYYPVPPGIQKIRVPQNLVETYKQNKAWKPFAEKIVAL | failed
3 | MGHHHHHHSHMVLSQNTKRESGRKVQSGNINAAKTIADIIRTCLGPKSMMKMLLDPMGGIVMTNDGNAILREIQVQHPAAKSMIEISRTQDEEVGDGTTSVIILAGEMLSVAEHFLEQQMHPTVVISAYRKALDDMISTLKKISIPVDISDSDMMLNIINSSITTKAISRWSSLACNIALDAVKMVQFEENGRKEIDIKKYARVEKIPGGIIEDSCVLRGVMINKDVTHPRMRRYIKNPRIVLLDSSLEYKKGESQTDIEITREEDFTRILQMEEEYIQQLCEDIIQLKPDVVITEKGISDLAQHYLMRANITAIRRVRKTDNNRIARACGARIVSRPEELREDDVGTGAGLLEIKKIGDEYFTFITDCKDPKACTILLRGASKEILSEVERNLQDAMQVCRNVLLDPQLVPGGGASEMAVAHALTEKSKAMTGVEQWPYRAVAQALEVIPRTLIQNCGASTIRLLTSLRAKHTQENCETWGVNGETGTLVDMKELGIWEPLAVKLQTYKTAVETAVLLLRIDDIVSGHKKKGDDQSRQGGAPDAGQE | failed
4 | MARIRIEAPGTIVYETLMDVRIGDINYANHLGNDALLRIAQEARLRLFRDWGYVDELHIDGVGIVVADAAICYLSEAFLGDVLRILVGTADIHRKGLDFIYQVIDDNSGREVARLKTGIVFFDYPARQVALMPESFSAKLGQLEHHHHHH | not failed
5 | MSLTVQDLHFKNKVNFIGGQYVPSNESDTIDILSPSTGKVIGEIPAGCKADAENALEVAQAAQKAWAKLTARTRQNMLRTFANKIRENKHILAPMLVAEQGKLLSVAEMEVDVTATFIDYGCDNALTIEGDILPSDNQDEKIYIHKVPRGVVVGITAWNFPLALAGRKIGPALITGNTMVLKPTQETPLATTELGRIAKEAGLPDGVLNVINGTGSVVGQTLCESPITKMITMTGSTVAGKQIYKTSAEYMTPVMLELGGKAPMVVMDDADLDKAAEDALWGRFANCGQVCTCVERLYVHASVYDEFMAKFLPLVKGLKVGDPMDADSQMGPKCNQREIDNIDHIVHEAIKQGATVATGGKTATVEGFEGGCWYEPTVLVDVKQDNIVVHEETFGPILPIVKVSSMEQAIEFCNDSIYGLSAYVHTQSFANINQAISDLEVGEVYINRGMGEQHQGFHNGWKQSGFGGEDGKFGLEQYLEKKTVYINEAEGHHHHHH | not failed
6 | MQPTGNQIQQNQQQQQQLIMRVPKQEVSVSGAARRYVQQAPPNRPPRQNHQNGAIGGKKSSVTIQEVPNNAYLETLNKSGNNKVDDDKLPVFLIKLWNIVEDPNLQSIVHWDDSGASFHISDPYLFGRNVLPHFFKHNNMNSMVRQLNMYGFRKMTPLSQGGLTRTESDQDHLEFSHPCFVQGRPELLSQIKRKQSARTVEDKQVNEQTQQNLEVVMAEMRAMREKAKNMEDKMNKLTKENRDMWTQMGSMRQQHARQQQYFKKLLHFLVSVMQPG | failed
7 | THVVCSDSGLEVLYQSCDPLQDFGFSVEKCSKQLKSNINIRFGIILREDIKELFLDLALMSQGSSVLNFSYPICEAALPKFSFCGRRKGEQIYYAGPVNNPEFTIPQGEYQVLLELYTEKRSTVACANATIMCS | not failed
8 | MNEPLHLYVHIPFCLKKCRYCSFVSRSDAPLAIDDYASLVAREMEMRVAAANPLPLSPATTLYLGGGTPSLLSPAALERIIDAAARSYGLGPGAEITLEANPGTVTFQRLADFRSAGVNRLSLGVQSFDDGMLVLLGRLHTARQAREAVAATRRAGFDNIGIDLIHSLPGQTPDQWREQLACAVALNPDHVSAYGLTVEEGTPFAAMEERGELVLPDEEQSALMFEATTDVLVSAGFEHYEIANFARPHRRSRHNQVYWLRRNYLGFGAGAHSFLRAPAFGVRWKNTDDLELYRDTLAAAELPGEERTVLSRADAMAEFFFLGLRLLDGVREEDFVREFGDTMENVYGREMERLCSAGLLMREGGRLKLSRRGVILANRVFASFL | failed
9 | MTNMRQVLKTDRLVLEPQSMARFDQWFAMERQRDEAGHRDLTEDQAWLRLCARQGMWDAYACGFYYLLDPVSGEMRGEAGFQFRRRGFGPGFDNHPEAAWAVASAHQGRGLAAEAMQALLAHHDRSSGRQRVVALIARSNLPSLRLAERLGFRGYSDVAFDGAAHLLLERAG | not failed
10 | FDQAPVLVVGDVMLDRYWHGGTSRISPEAPVPVVKVDQIEDRPGGAANVALNIAALGAPASLVGVTGDDEAAESLTNSLKAAGVVARFQRIADQPTIVKLRVMSRHQQLLRIDFEEPFNTDPLALSAEVYSLLDGIKVLVLSDYGKGALKNHQALIQAARKRGIPVLADPKGKDFAIYRGASLITPNLSEFEAIVGHCEDEAQLVTKGAQLMQELDLGALLVTRGEHGMTLLRPDQQALHLPARAREVFDVTGAGDTVISTLAAAIAAGEELPHAVALANLAAGIVVGKLGTAAISAPELRRAIQR | failed
11 | MEGQENKVLFGLENVHYATYSETDGVITYDTPKPLPGGVEISVEPQGDMIKFYADNIVYYQAPNNQGYEGTLTIASIPEGFATDCLGEELDTVDGVLTEKSDAKPKPFALLFEFDGDVKSVRQVLYNCTASRPTVASSTLEHHHHHH | not failed
12 | MAASAHGSVWGPLRLGIPGLCCRRPPLGLYARMRRLPGPEVSGRSVAAASGPGAWGTDHYCLELLRKRDYEGYLCSLLLPAESRSSVFALRAFNVELARVKDSVSEKTIGLMRMQFWKKTVEDIYCDNPPHQPVAIELWKAVKRHNLTKRWLMKIVDEREKNLDDKAYRNIKELENYAENTQSSLLYLTLEILGIKDLHADHAASHIGKAQGIVTCLRATPYHGSRRKVFLPMDICMLHGVSQEDFLRRNQDKNVRDVIYDIASQAHLHLKHARSFHKTVPVKAFPAFLQTVSLEDFLKKIQRVDFDIFHPSLQQKNTLLPLYLYIQSWRKTY | failed
13 | MKQESPRLENTTPVEEKMTRSLLDHLTRLKPTRLVIFTSVFLSCLLLSLGFVFLQPATYQSYATLLTVAKTAIDQASREADIQHVAIQKQVLLGSELLTETADRLRKGDDAEAGINLTHAAIRDMLDVRPVDDTNLVEMVAEGNEPGLLPRLINTWIDVYLDARSAEIARSKGSTVEMMQEELVALTEKIQQKRLELEQFRQHNEIVSTERQDNEALARLKGLTDSLNKASEEEVKAKARLDTIRKSIERGQIVVPNEDTRTLSALERRAQELREQLEELDRQYTREYMALSPDLKVIPDKLRALEDEIQHIRRKGQTVVVSDAEQEYAAARQATRSIQEQLDQHRKKAAEFTARFTEHDALKSDLEELEQLYRDTQARLAQIEAQHTGKYPYVDVIERAFLPHHPIGPDYLWNAMIATLASLLLGLTAIWILEFLMHKEQEKLAIHLSGIHLHNQDNLPHSAFDVLPSTSVNLPRQPAQALEHTSMNGLTPQQIATLFQTANIREKQLLLLLLSGLTPDEITHLQQDDIDLEHNSLTVRSVPARTIPLHPVLAALYGKYGHCLTDPAGNRLNQEELEALLICLQIDADLSADNQISAEILRQTYILYLVRQGIRLGDLESVTGYISPTELSGYGTYAPAGTRYPVESVNLFYPIDYKQDV | failed
14 | IGNVQYYLGFNLYDSRTKITKYDNEVGLLGKDSDDNLIYRKGMELGEIWGYTTDRLYTTEDFDSQGKLKNNIPKVEGYNPNPGDILYVDFDGNGIINNGKNTSNEPGDTRIIGNDTRRYQYGIRGGATWKGISLSFILQGVGKRDLWLMNELFYPHYDAYSTLFDSQLNYWTPEHTNSYFPRLYEKAEGNTKANQKPQTRFLQNGAYLSIRNISLSYTFPIKLIKPLGITNLSVFFGGENLFTFDHLPKGIDAERVVTDNLGQRGFTYPYMRQFSFGINLSL | failed
15 | MTAHKQPEANETESLLEQVQALESEVRGVVKTQLQLAGMETRRAGESFVRMVAFAVLAACLAFTAWAVLVTAAVIAIVNSSVMSLTTALVIVAVAHLAAAFYIVRYIKRRSRDLLFAETSSSL | failed
16 | MQQLQNVIETAFERRADITPANVDTVTREAITHVIDLLDTGALRVAEKIDGQWVTHQWLKKAVLLSFRINDNQVMEGAETRYYDKVPMKFAGYDEARFQREGFRVVPPATVRKGAFIARNTVLMPSYVNIGAFVDEGTMVDTWATVGSCAQIGKNVHLSGGVGIGGVLEPLQANPTIIEDNCFVGARSEVVEGVIVEEGSVISMGVFIGQSTRIYDRETGEVHYGRVPAGSVVVSGNLPSKDGSYSLYCAVIVKKVDAKTRSKVGINELLRTID | not failed
17 | MTKYALVGDVGGTNARLALCDIASGEISQAKTYSGLDYPSLEAVIRVYLEEHKVEVKDGCIAIACPITGDWVAMTNHTWAFSIAEMKKNLGFSHLEIINDFTAVSMAIPMLKKEHLIQFGGAEPVEGKPIAVYGAGTGLGVAHLVHVDKRWVSLPGEGGHVDFAPNSEEEAIILEILRAEIGHVSAERVLSGPGLVNLYRAIVKADNRLPENLKPKDITERALADSCTDCRRALSLFCVIMGRFGGNLALNLGTFGGVFIAGGIVPRFLEFFKASGFRAAFEDKGRFKEYVHDIPVYLIVHDNPGLLGSGAHLRQTLGHIL | not failed
18 | MGERGVEMRLRIRFESAECEVELYEEWAPETVRAIADALPIKSTANRWGDEIYFTTQVAVEKEENSKDVVELGDVAYWIPGKAICLFFGKTPISDDKIRPASAVNVIGRIVNSMEGLKGVADGESVVVERA | not failed
19 | MQWDPGGATESRSKLYIYLRFLRIEQVFFSLPMAYMGAFLAIREIPPIQVLILMFFSLFFLRTAGMTNDNLADREIDAMNPRTKSRPLVTGKITVREAKLLITISLIGFFITAYLINLYALIFAPIVALIVMSYPYMKRYTAFANYHLASIQGLAVFSGAVASLGLYAKSFTQLVTGIPWLFVISTVFWAVGFDLYNHIPDADFDKKMGLHSFAVLLGDRALMFAGLNQLISVLLALFGDIQFNLGIIAYIATILHGLIMGYAYYSATRGNFGRAFYYNIYSSIVLGIGIIIDIIV | failed
20 | MPFTPVDWAILGIVAISALISLKRGFVKEALSLTTWIIAGVVAWMFGAGLSQYLVNYIETPSARVIASCTILFVATLLVGAMVNFLIGELIRVTGLSGTDRFLGMVFGAARGGLLVVVAVGLLSLGPVQQDQWWQQSRLVPQFLIVADWSKNLILGMSSKWLASGISVPADLPFKEQILPPTLPQDVLGKSSSTK | failed
21 | MTKQKKLLPVASLLLGAAIWGVAWYPYRLLEQAGMRGELSTTLAYSIALLIGLILFRRQLRISEILNPAAGILFWISLSAGWTGIAYVLGIIHGEVMRVLLLFYLAPLWTILFSRILLQERLSRQGYAIILLSLAGALLLLWQPGSKLPLLASYGDWMGLSGGLAFALTNVLIRKDQQHGIQLKLLAVLSGTALTGFAATLLMESISDITHLHTHAWLILAGIGGLVFFLCILLQYGMTHIPANQAIVIMLFELVVAAIAAHFLTNEYLTGRDWAGGLMIASASLFSARVNRD | failed
